The results in this text go back to patent US20190194350A1 (UNIVERSITAT STUTTGART, published 2019).

Where “and” joins values, the source holds several entries; their conditions need not be identical. Equal values may be shown once.

The target of assay [1] is T1, HER3-Fc fusion comprising the extracellular domain (aa 27-599) of human HER3 (human, UniProt P21860 27-599).
T1 construct: also called HER3-Fc fusion protein; not shown: Fc part
Kind of assay: ELISA, coated HER3-Fc (aa 27-599), anti-His-HRP.

In assay [2] the target is T2, CD3 on CD3-expressing Jurkat cells (human, UniProt P07766 23-207).
T2 construct: whole, on cells; also called human CD3
T2 sequence (P07766 23-207): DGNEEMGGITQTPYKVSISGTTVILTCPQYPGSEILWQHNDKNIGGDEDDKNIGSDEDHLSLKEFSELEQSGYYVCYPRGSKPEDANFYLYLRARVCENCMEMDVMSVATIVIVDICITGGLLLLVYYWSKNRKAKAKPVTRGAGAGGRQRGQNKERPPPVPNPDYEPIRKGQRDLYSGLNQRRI
The experiment in a line: flow cytometry, CD3-expressing Jurkat cells. (Flow cytometry measures light scatter and fluorescence of single cells or particles in a stream.)

Assay [3] addresses T3, HER3 on HER3-expressing tumor cells (human, UniProt P21860 20-1342).
T3 construct: Endogenous HER3 of human tumor cell lines (MCF-7, FaDu, BT474, A431, NCI-N87, A549, SKBR-3, Colo205, HCT-116, A375 and melanoma lines); also called cellular receptor HER3; cell surface expressed HER3
Kind of assay: flow cytometry, HER3-expressing MCF-7 cells.

Assay [4] has as its target T2, CD3 on CD3-expressing Jurkat cells. Kind of assay: flow cytometry, CD3-positive Jurkat cells.
Assay [5] has as its target T3, HER3 on HER3-expressing tumor cells. Kind of assay: cell-based or functional assay.
For assay [6] the target is unchanged. Kind of assay: flow cytometry, SKBR-3 cells (carry EGFR and HER3; bispecific, number not split between the two targets); SKBR-3 cells (EGFR and HER3 in similar ranges).
Assay [7] deals with T4, EGFR on tumor cells (human, UniProt P00533 25-1210).
T4 construct: whole, on cells; also called EGFR on FaDu and SKBR-3 cells
The assay is described as above.

Assay [8] addresses T5, HER3-His (HER3 aa 27-599 of the extracellular domain fused C-terminally with a hexahistidyl-tag) (human, UniProt P21860 27-599).
T5 construct: also called soluble His-tagged HER3; His-tagged extracellular domain of HER3; not shown: C-terminal hexahistidyl-tag
Kind of assay: sandwich ELISA: coated EGFR-Fc, serial dilution of Db3-43xhu225-Ig, then 300 nM HER3-His detected by anti-His-HRP. On the technique in general: ELISA stands for enzyme-linked immunosorbent assay.

Assay [9] concerns the target T3, HER3 on HER3-expressing tumor cells. Kind of assay: flow cytometry, HER3-positive MCF-7 cells; MCF-7 cells.
Assay [10] concerns the target T4, EGFR on tumor cells. The experiment in a line: flow cytometry, FaDu cells (very high EGFR, low HER3; the filing says binding is most likely through the hu225 moieties); FaDu cells.
For assay [11], the target named is T5, HER3-His (HER3 aa 27-599 of the …). Kind of assay: ELISA, coated His-tagged HER3 ECD (aa 27-599).
The target in a further assay is T6, HER2-ECD protein (UniProt P04626 23-652, limits assumed).
T6 construct: extracellular domain
The experiment in a line: ELISA, immobilized HER2-ECD.

The target of assay [12] is T7, mouse HER3-Fc fusion protein (extracellular region of mouse HER3 fused to a human Fc region) (mouse, UniProt Q61526 20-641).
T7 construct: extracellular domain; not shown: human Fc region
T7 sequence (Q61526 20-641): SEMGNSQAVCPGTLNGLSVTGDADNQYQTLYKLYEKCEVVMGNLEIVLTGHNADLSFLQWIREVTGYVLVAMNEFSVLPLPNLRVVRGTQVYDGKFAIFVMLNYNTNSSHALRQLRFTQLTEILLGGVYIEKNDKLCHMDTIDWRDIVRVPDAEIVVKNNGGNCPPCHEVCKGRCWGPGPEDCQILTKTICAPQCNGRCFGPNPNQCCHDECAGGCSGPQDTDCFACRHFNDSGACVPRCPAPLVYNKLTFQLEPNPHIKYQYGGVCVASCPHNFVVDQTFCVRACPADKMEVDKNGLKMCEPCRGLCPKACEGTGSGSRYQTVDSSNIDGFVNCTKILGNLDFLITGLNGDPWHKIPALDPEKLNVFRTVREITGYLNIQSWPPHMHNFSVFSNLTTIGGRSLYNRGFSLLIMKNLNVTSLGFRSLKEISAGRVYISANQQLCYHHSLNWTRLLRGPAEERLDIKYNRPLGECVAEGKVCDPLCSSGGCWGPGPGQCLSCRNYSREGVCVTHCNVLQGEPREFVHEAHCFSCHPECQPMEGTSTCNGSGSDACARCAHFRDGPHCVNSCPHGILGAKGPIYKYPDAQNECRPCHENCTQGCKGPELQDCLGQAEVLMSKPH
Kind of assay: ELISA, immobilized mouse HER3 extracellular region fused to human Fc, scFv detected with anti-His-tag antibody.

B1: scDb 3-43xCD3 (bispecific antibody)
chain: QLQQSGPGLVKPSQTLSLTCAISGDSVSSNRAAWNWIRQSPSRGLEWLGRTYYRSKWYNDYAQSLKSRITINPDTPKNQFSLQLNSVTPEDTAVYYCARDGQLGLDALDIWGQGTMVTVSSGGGGSDIQMTQSPSSLSASVGDRVTITCRASQDIRNYLNWYQQKPGKAPKLLIYYTSRLHSGVPSRFSGSGSGTDFTFTISSLQPEDIATYYCQQGNTLPWTFGQGTKLEIKRGGGGSGGGGSGGGGSQVQLVQSGAEVKKPGSSVKVSCKASGGTFSGYTMNWVRQAPGQGLEWMGLINPYKGVSTYNGKFKDRVTITADKSTSTAYMELSSLRSEDTAVYYCARSGYYGDSDWYFDVWGQGTLVTVSSGGGGSQAGLTQPPAVSVAPGQTASITCGRDNIGSRSVHWYQQKPGQAPVLVVYDDSDRPAGIPERFSGSNYENTATLTISRVEAGDEADYYCQVWGITSDHVVFGGGTKLTVLAAAHHHHHH
notes: also called scDb3-43xhuU3
Regarding B1, the half-maximal effective concentration (EC50) in [1] was 3.3 nM and 4.87 nM; in assay [2], 3.1 nM; in assay [3], 1.1 nM; in assay [4], 2.4 nM. The “IL-2 release of PBMC with HER3-expressing Colo205 cells (EC50)” value in assay [5] was found to be 0.3 nM. Besides, the “IL-2 release of PBMC with HER3-expressing MCF-7 cells (EC50)” value in assay [5] amounted to 0.48 nM. In addition, in [5], the “killing of MCF-7 cells by PBMC, MTT assay (EC50)” value worked out at 0.084 nM.

B2: Db3-43xhu225-Ig (bispecific antibody, human IgG1, kappa)
light: QVQLQQSGPGLVKPSQTLSLTCAISGDSVSSNRAAWNWIRQSPSRGLEWLGRTYYRSKWYNDYAQSLKSRITINPDTPKNQFSLQLNSVTPEDTAVYYCARDGQLGLDALDIWGQGTMVTVSSGGGGSDIQLTQSPSFLSASVGDRVTITCRASQSIGTNIHWYQQKPGKAPKLLIKYASESISGVPSRFSGSGSGTEFTLTISSLQPEDFATYYCQQNNNWPTTFGAGTKLEIKRTVAAPSVFIFPPSDEQLKSGTASVVCLLNNFYPREAKVQWKVDNALQSGNSQESVTEQDSKDSTYSLSSTLTLSKADYEKHKVYACEVTHQGLSSPVTKSFNRGEC
heavy: EVQLVESGGGLVQPGGSLRLSCAASGFSLTNYGVHWVRQAPGKGLEWLGVIWSGGNTDYNTPFTSRFTISRDNSKNTLYLQMNSLRAEDTAVYYCARALTYYDYEFAYWGQGTTVTVSSGGGGSQAGLTQPPAVSVAPGQTASITCGRDNIGSRSVHWYQQKPGQAPVLVVYDDSDRPAGIPERFSGSNYENTATLTISRVEAGDEADYYCQVWGITSDHVVFGGGTKLTVLASTKGPSVFPLAPSSKSTSGGTAALGCLVKDYFPEPVTVSWNSGALTSGVHTFPAVLQSSGLYSLSSVVTVPSSSLGTQTYICNVNHKPSNTKVDKKVEPKSCDKTHTCPPCPAPPVAGPSVFLFPPKPKDTLMISRTPEVTCVVVDVSHEDPEVKFNWYVDGVEVHNAKTKPREEQYNSTYRVVSVLTVLHQDWLNGKEYKCKVSNKGLPSSIEKTISKAKGQPREPQVYTLPPSRDELTKNQVSLTCLVKGFYPSDIAVEWESNGQPENNYKTTPPVLDSDGSFFLYSKLTVDKSRWQQGNVFSCSVMHEALHNHYTQKSLSLSPGK
notes: Light chain VH3-43xVLhu225-CL, heavy chain VHhu225xVLhu3-43-CH1-CH2-CH3; two sites for EGFR and two for HER3; also called Db-Ig; bispecific and tetravalent diabody-Ig fusion protein
Turning to B2, the concentration giving a half-maximal response (EC50) worked out at 0.047 nM in assay [6]; 0.047 nM with EGFR on tumor cells [7]; 0.85 nM in [8]; 0.054 nM in assay [9]; 0.14 nM in the assay with EGFR on tumor cells [10]; 0.26 nM in assay [11].

B3: IgG 2-35 (antibody, V domains shown)
VH: QMQLVQSGAEVKKPGESLKISCKGSGYSFTSYWIGWVRQMPGKGLEWMGIIYPGDSDTRYSPSFQGQVTISADKSISTAYLQWSSLKASDTAMYYCARLGRSGSYYNYGMDVWGQGTTVTVSS
VL: QAVVTQEPSFSVSPGGTVTLTCGLSSGSVSSSYYPSWYQQTSGQPPRTLIYSTDTRSSGVPDRFSGSILGDKAALTITGAQADDESDYYCMLYMGSGISVFGGGTKLAVL
notes: Anti-HER2 antibody found by phage display
In the case of B3, the EC50 with HER2-ECD protein was roughly 1.5 nM.

B4: scDb3-43xCD3-scFv3-43 (bispecific antibody)
chain: QLQQSGPGLVKPSQTLSLTCAISGDSVSSNRAAWNWIRQSPSRGLEWLGRTYYRSKWYNDYAQSLKSRITINPDTPKNQFSLQLNSVTPEDTAVYYCARDGQLGLDALDIWGQGTMVTVSSGGGGSDIQMTQSPSSLSASVGDRVTITCRASQDIRNYLNWYQQKPGKAPKLLIYYTSRLHSGVPSRFSGSGSGTDFTFTISSLQPEDIATYYCQQGNTLPWTFGQGTKLEIKRGGGGSGGGGSGGGGSQVQLVQSGAEVKKPGSSVKVSCKASGGTFSGYTMNWVRQAPGQGLEWMGLINPYKGVSTYNGKFKDRVTITADKSTSTAYMELSSLRSEDTAVYYCARSGYYGDSDWYFDVWGQGTLVTVSSGGGGSQAGLTQPPAVSVAPGQTASITCGRDNIGSRSVHWYQQKPGQAPVLVVYDDSDRPAGIPERFSGSNYENTATLTISRVEAGDEADYYCQVWGITSDHVVFGGGTKLTVLAAAGGSGGGGSGGGTQVQLQQSGPGLVKPSQTLSLTCAISGDSVSSNRAAWNWIRQSPSRGLEWLGRTYYRSKWYNDYAQSLKSRITINPDTPKNQFSLQLNSVTPEDTAVYYCARDGQLGLDALDIWGQGTMVTVSSGGGGSGGGGSGGGGSQAGLTQPPAVSVAPGQTASITCGRDNIGSRSVHWYQQKPGQAPVLVVYDDSDRPAGIPERFSGSNYENTATLTISRVEAGDEADYYCQVWGITSDHVVFGGGTKLTVLGSLHHHHHH
notes: Trivalent: two sites for HER3, one for CD3; also called scDb-scFv; scDb3-43xhuU3-scFv3-43
On to B4, for which the concentration for a half-maximal effect (EC50) in assay [1] is 0.81 nM; in assay [2], 13.2 nM; in assay [3] it was 0.0316 nM and 0.0314 nM; in [4], 4.2 nM. Besides, the “IL-2 release of PBMC with HER3-expressing MCF-7 cells (EC50)” value in [5] amounted to 0.29 nM. Further, the “killing of MCF-7 cells by PBMC, MTT assay (EC50)” value in assay [5] is 0.034 nM.

B5: scFv 3-43 (scFv)
scFv: QVQLQQSGPGLVKPSQTLSLTCAISGDSVSSNRAAWNWIRQSPSRGLEWLGRTYYRSKWYNDYAQSLKSRITINPDTPKNQFSLQLNSVTPEDTAVYYCARDGQLGLDALDIWGQGTMVTVSSGGGGSGGGGSGGGGSQAGLTQPPAVSVAPGQTASITCGRDNIGSRSVHWYQQKPGQAPVLVVYDDSDRPAGIPERFSGSNYENTATLTISRVEAGDEADYYCQVWGITSDHVVFGGGTKLTVLG
On to B5, for which the binding result in [12] is “binds”.

The term EC50 denotes the concentration giving half of the maximal effect. Higher therefore signals weaker potency.
